Data taken from US20240279288A1, “APPLICATION OF PLANT JAZ PROTEINS AND DERIVED POLYPEPTIDES IN PREVENTION AND TREATMENT OF HUMAN AND ANIMAL TUMORS” (ANYANG INSTITUTE OF SINO-COTTON INDUSTRY INNOVATION, priority 2021, published 2024).

What was measured:
[1] = tested on: MCF7 cells; assay: Apoptosis staining (Calcein AM/PI), fluorescence microscopy; format: cell-based, human; conditions: Calcein AM/PI staining vs PBS
Procedure: Method for apoptosis staining. Fluorescence microscopy detection: a. Seeding and culturing. Cells were seeded onto multiwell plates such as 96-well plates, cell culture dishes, or cell slides, and were treated in a certain way according to the experimental design. b. Washing (optionally). For adherent cells, the medium was removed, and cells were washed once with PBS. For suspended cells, cells were centrifuged at 250-1000×g at room temperature for 5 min, with the supernatant removed, followed by washing once with PBS. Phenol red or serum might interfere with the detection of this kit, therefore, a vacuum pump was preferred when removing the medium and PBS. PBS washing was not necessary in the case that the residual liquid can be sufficiently aspirated. c. Staining. An appropriate volume of Calcein AM/PI detection working solution (Beyotime Biotech. Inc., Calcein/PI Cell Viability and Cytotoxicity Detection Kit, Cat. No.: C2015) was added. Usually, 100 μl were added to each well for a 96-well plate, 250 μl for a 24-well plate, 500 μl for a 12-well plate, and 1 ml for a 6-well plate. Incubation was performed at 37° C. in dark for 30 min. […] After incubation, the staining effect was observed under a fluorescence microscope (with Calcein AM in green fluorescence, Ex/Em=494/517 nm; PI in red fluorescence, Ex/Em=535/617 nm). […]

[2] = tested on: GhCOI1; assay: Luciferase experiment in tobacco leaves with GhCOI1; format: binding, cotton; conditions: no fluorescence on the control
Description: Method of the luciferase experiment: GhJAZ1 (corresponding encoding gene sequence set forth in SEQ ID No. 39) was subcloned into pCAMBIA-CLuc vector (Chen, H., et al. “Firefly Luciferase Complementation Imaging Assay for Protein-Protein Interactions in Plants.” Plant Physiology 146.2(2008):368-376.) between KpnI and SalI cleavage sites, and the transcription factors such as GhMYC2 (corresponding encoding gene sequence set forth in SEQ ID No. 72), GhNINJA (corresponding encoding gene sequence set forth in SEQ ID No. 74), and GhCOI1 (corresponding encoding gene sequence set forth in SEQ ID No. 80) were subcloned into pCAMBIA-NLuc (Chen, H., et al. “Firefly Luciferase Complementation Imaging Assay for Protein-Protein Interactions in Plants.” Plant Physiology 146.2(2008):368-376.) between KpnI and SalI cleavage sites, respectively. […] Luciferase substrates were applied at the infected leaves before taking images and placed in a dark room for at least 6 min to quench fluorescence, followed by observation on the Nightowl-II LB983 instrument, using IndigoBasic software under the luciferase-5 min setting conditions.

[3] = biological target: uPAR (Homo sapiens, UniProt Q03405); assay: CO-IP experiment with uPAR; format: binding; conditions: in vivo
Procedure: Steps of method of CO-IP experiment: Non-denaturing lysate was added to 293T cell culture plate (Pricella, Cat. No.: CL-0005), and the cells were completely lysed at 4° C. The lysate was centrifuged at 12,000 rpm for 10 min and the supernatant was collected. The corresponding antibody was added to the obtained non-denatured protein solution, which was incubated overnight at 4° C. Pierce™ protein A/G magnetic agarose (Thermo Fisher Scientific, Inc.) were washed with lysis buffer, followed by addition pre-treated beads to the cell lysate, and incubation at room temperature for 2 hours. […] The band of interest was detected by Western blotting.
In order to explore how GhJAZ1 enters cancer cells, we cloned the genes of most tumor surface receptors, including uPAR (NCBI database accession number of NM_002659.4), CCK1R (NP_000721.1), CCK2R (NP_001350481.1), HER2 (NP_004439.2), GRPR (NP_005305.1), MUC1 (NP_001358649.1), VEGFR1 (NP_002010.2), Insulin receptor (NM_000208.4), NTR (XM_011528827.2), PSMA (XM_017017432.1), TFR1 (NM_001128148.3), TFR2 (NM_003227.4), PEPT1 (NM_005073.4), APN (NM_001150.3). […] We detected the interaction of GhJAZ1 with uPA (as the ligand of uPAR, NCBI database accession number of NP_002649.2) and uPAR by yeast two hybrid (the steps of the experiment as Example 3). […]

Chain of uPAR (Q03405 23-305): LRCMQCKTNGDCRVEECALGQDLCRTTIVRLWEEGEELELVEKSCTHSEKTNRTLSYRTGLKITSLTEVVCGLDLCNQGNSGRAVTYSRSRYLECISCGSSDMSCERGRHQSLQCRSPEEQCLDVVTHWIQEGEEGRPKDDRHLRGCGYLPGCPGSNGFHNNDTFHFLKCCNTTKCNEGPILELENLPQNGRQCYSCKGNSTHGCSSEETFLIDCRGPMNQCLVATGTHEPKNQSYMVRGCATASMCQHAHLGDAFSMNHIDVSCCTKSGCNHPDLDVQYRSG
Chain of GhCOI1 (as listed by the source): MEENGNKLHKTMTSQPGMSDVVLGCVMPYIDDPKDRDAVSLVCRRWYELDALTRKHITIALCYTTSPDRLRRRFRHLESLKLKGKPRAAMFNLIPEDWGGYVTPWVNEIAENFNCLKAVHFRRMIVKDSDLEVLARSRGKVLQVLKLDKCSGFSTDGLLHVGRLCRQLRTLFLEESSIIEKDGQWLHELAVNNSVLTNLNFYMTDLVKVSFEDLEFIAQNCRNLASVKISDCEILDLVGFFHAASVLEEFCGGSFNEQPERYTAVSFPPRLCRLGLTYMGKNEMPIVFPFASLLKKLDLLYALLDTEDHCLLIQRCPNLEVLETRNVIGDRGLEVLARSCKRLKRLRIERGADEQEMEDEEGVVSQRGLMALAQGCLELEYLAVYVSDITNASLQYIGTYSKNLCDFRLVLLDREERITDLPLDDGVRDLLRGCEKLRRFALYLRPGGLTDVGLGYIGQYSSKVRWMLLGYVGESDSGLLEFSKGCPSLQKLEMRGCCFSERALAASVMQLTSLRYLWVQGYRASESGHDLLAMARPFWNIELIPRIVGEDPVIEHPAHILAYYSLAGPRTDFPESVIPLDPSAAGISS

B1: GhJAZ1: cotton JAZ1 protein, gene number Gh_A05G0260, sequence SEQ ID No. 4; prokaryotically expressed with His tag, about 30 KD (protein)
chain: MSSCSESTAMKPARSPEKPSFAQTCNLLSQYLKEKGSFGDLSLGMTCNVEANGTPVVPPPTMNLFPLNDKSDDVCGRNGGNPKNLTSMDLFPQQAGLASKDDSPNKLEPQTAPMTIFYGGQVIVFNDFPANKAKEIMLLASNSSSQSNNSFNPIPFTSSIARSPIESSIGVPPTSKPVHPAQRAVPGDLPIARRASLHRFLEKRKDRITAKAPYQINNSAAAPSLSGDNKSWLGLAAQSP
modifications: His tag
notes: prokaryotically expressed with His tag, about 30 KD
- mortality rate of MCF7 cells [1]: significantly increased
- fluorescence with GhCOI1 after applying luciferase substrate [2]: weaker fluorescence
- interaction with uPAR [3]: interacts
